Laboratory results published in paper PMC7786333, “Integration of diverse DNA substrates by a casposase can be targeted to R-loops in vitro by its fusion to Cas9”.

Target: Casp-Cas9 (Aciduliprofundum boonei T469 / …, UniProt B5IAF4 1-404+=GGSGGSGGSGGSGGSGGSGGSGGS+Q99ZW2:1-1368, internal_change)
Experiment: R-loop formation gel assay (deproteinised); sgran50; 5 mM EDTA; 25 mM Tris pH 7.5, 106 mM KCl, 50 ug/ml BSA, 5 mM EDTA, 2 mM DTT, 9% glycerol, 37 C; 150 nM protein, 300 nM sgRNA, 25 nM Cy5-dsran50, 75 nM unlabelled MW12 dsDNA competitor; 8% acrylamide TBE gel
Conditions: protein: recombinant, tags: His6, label: 5'-Cy5 on ssran50 strand (strand 2), blunt 50 bp DNA target plus sgRNA, PAM TGG

B1: sgran50 + dsran50 (mixed)
RNA: GGUAGACGAUUACAUUGCUACAGUUUUAGAGCUAGAAAUAGCAAGUUAAAAUAAGGCUAGUCCGUUAUCAACUUGAAAAAGUGGCACCGAGUCGGUGCUU
DNA 1: CAACGTCATAGACGATTACATTGCTACATGGAGCTGTCTAGAGGATCCGA
DNA 2: TCGGATCCTCTAGACAGCTCCATGTAGCAATGTAATCGTCTATGACGTTG
B1: binds.
